Results published in publication PMC12416549 (2024).

T1: TNFR1 (Homo sapiens, UniProt P19438)
T1 chain: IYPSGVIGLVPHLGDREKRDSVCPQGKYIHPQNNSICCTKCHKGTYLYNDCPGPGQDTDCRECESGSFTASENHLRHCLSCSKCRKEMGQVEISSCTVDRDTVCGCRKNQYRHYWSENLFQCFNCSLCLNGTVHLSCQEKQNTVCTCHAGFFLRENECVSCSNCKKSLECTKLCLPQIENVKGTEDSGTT


Target: T1, TNFR1
Assay: yeast display SC50

Binder	apparent Kd (screen) [nM]
E33I (designed binder) MTLQELLREEALRRAEAEAFRYALELLAEKFPIQKEYLLDLAEEIESQIRSLSGVDVEDVRKFLDKEWAWVKELLAEHPAELAEVEAARAARLAELRAEVEAKVAA	0.718
L27V (designed binder) MTLQELLREEALRRAEAEAFRYALELVAEKFPEQKEYLLDLAEEIESQIRSLSGVDVEDVRKFLDKEWAWVKELLAEHPAELAEVEAARAARLAELRAEVEAKVAA	1.54
A98M (designed binder) MTLQELLREEALRRAEAEAFRYALELLAEKFPEQKEYLLDLAEEIESQIRSLSGVDVEDVRKFLDKEWAWVKELLAEHPAELAEVEAARAARLAELRMEVEAKVAA	0.653
A69H (designed binder) MTLQELLREEALRRAEAEAFRYALELLAEKFPEQKEYLLDLAEEIESQIRSLSGVDVEDVRKFLDKEWHWVKELLAEHPAELAEVEAARAARLAELRAEVEAKVAA	0.869
L75D (designed binder) MTLQELLREEALRRAEAEAFRYALELLAEKFPEQKEYLLDLAEEIESQIRSLSGVDVEDVRKFLDKEWAWVKELDAEHPAELAEVEAARAARLAELRAEVEAKVAA	0.539
L26A (designed binder) MTLQELLREEALRRAEAEAFRYALEALAEKFPEQKEYLLDLAEEIESQIRSLSGVDVEDVRKFLDKEWAWVKELLAEHPAELAEVEAARAARLAELRAEVEAKVAA	0.718
L27T (designed binder) MTLQELLREEALRRAEAEAFRYALELTAEKFPEQKEYLLDLAEEIESQIRSLSGVDVEDVRKFLDKEWAWVKELLAEHPAELAEVEAARAARLAELRAEVEAKVAA	0.539
V100T (designed binder) MTLQELLREEALRRAEAEAFRYALELLAEKFPEQKEYLLDLAEEIESQIRSLSGVDVEDVRKFLDKEWAWVKELLAEHPAELAEVEAARAARLAELRAETEAKVAA	0.49
E29L (designed binder) MTLQELLREEALRRAEAEAFRYALELLALKFPEQKEYLLDLAEEIESQIRSLSGVDVEDVRKFLDKEWAWVKELLAEHPAELAEVEAARAARLAELRAEVEAKVAA	0.539
E36A (designed binder) MTLQELLREEALRRAEAEAFRYALELLAEKFPEQKAYLLDLAEEIESQIRSLSGVDVEDVRKFLDKEWAWVKELLAEHPAELAEVEAARAARLAELRAEVEAKVAA	0.49
E5S (designed binder) MTLQSLLREEALRRAEAEAFRYALELLAEKFPEQKEYLLDLAEEIESQIRSLSGVDVEDVRKFLDKEWAWVKELLAEHPAELAEVEAARAARLAELRAEVEAKVAA	0.49
R14M (designed binder) MTLQELLREEALRMAEAEAFRYALELLAEKFPEQKEYLLDLAEEIESQIRSLSGVDVEDVRKFLDKEWAWVKELLAEHPAELAEVEAARAARLAELRAEVEAKVAA	0.718
L74W (designed binder) MTLQELLREEALRRAEAEAFRYALELLAEKFPEQKEYLLDLAEEIESQIRSLSGVDVEDVRKFLDKEWAWVKEWLAEHPAELAEVEAARAARLAELRAEVEAKVAA	0.189
R8F (designed binder) MTLQELLFEEALRRAEAEAFRYALELLAEKFPEQKEYLLDLAEEIESQIRSLSGVDVEDVRKFLDKEWAWVKELLAEHPAELAEVEAARAARLAELRAEVEAKVAA	0.49
A88E (designed binder) MTLQELLREEALRRAEAEAFRYALELLAEKFPEQKEYLLDLAEEIESQIRSLSGVDVEDVRKFLDKEWAWVKELLAEHPAELAEVEAERAARLAELRAEVEAKVAA	0.49
L96P (designed binder) MTLQELLREEALRRAEAEAFRYALELLAEKFPEQKEYLLDLAEEIESQIRSLSGVDVEDVRKFLDKEWAWVKELLAEHPAELAEVEAARAARLAEPRAEVEAKVAA	0.49
L7G (designed binder) MTLQELGREEALRRAEAEAFRYALELLAEKFPEQKEYLLDLAEEIESQIRSLSGVDVEDVRKFLDKEWAWVKELLAEHPAELAEVEAARAARLAELRAEVEAKVAA	16.7
E46F (designed binder) MTLQELLREEALRRAEAEAFRYALELLAEKFPEQKEYLLDLAEEIFSQIRSLSGVDVEDVRKFLDKEWAWVKELLAEHPAELAEVEAARAARLAELRAEVEAKVAA	0.49

Binder	apparent Kd (screen) [nM]
R13L (designed binder) MTLQELLREEALLRAEAEAFRYALELLAEKFPEQKEYLLDLAEEIESQIRSLSGVDVEDVRKFLDKEWAWVKELLAEHPAELAEVEAARAARLAELRAEVEAKVAA	0.49
R50M (designed binder) MTLQELLREEALRRAEAEAFRYALELLAEKFPEQKEYLLDLAEEIESQIMSLSGVDVEDVRKFLDKEWAWVKELLAEHPAELAEVEAARAARLAELRAEVEAKVAA	0.593
A23T (designed binder) MTLQELLREEALRRAEAEAFRYTLELLAEKFPEQKEYLLDLAEEIESQIRSLSGVDVEDVRKFLDKEWAWVKELLAEHPAELAEVEAARAARLAELRAEVEAKVAA	0.539
E46C (designed binder) MTLQELLREEALRRAEAEAFRYALELLAEKFPEQKEYLLDLAEEICSQIRSLSGVDVEDVRKFLDKEWAWVKELLAEHPAELAEVEAARAARLAELRAEVEAKVAA	0.304
R50Y (designed binder) MTLQELLREEALRRAEAEAFRYALELLAEKFPEQKEYLLDLAEEIESQIYSLSGVDVEDVRKFLDKEWAWVKELLAEHPAELAEVEAARAARLAELRAEVEAKVAA	0.539
L38Y (designed binder) MTLQELLREEALRRAEAEAFRYALELLAEKFPEQKEYYLDLAEEIESQIRSLSGVDVEDVRKFLDKEWAWVKELLAEHPAELAEVEAARAARLAELRAEVEAKVAA	0.79
K72S (designed binder) MTLQELLREEALRRAEAEAFRYALELLAEKFPEQKEYLLDLAEEIESQIRSLSGVDVEDVRKFLDKEWAWVSELLAEHPAELAEVEAARAARLAELRAEVEAKVAA	0.49
K30Y (designed binder) MTLQELLREEALRRAEAEAFRYALELLAEYFPEQKEYLLDLAEEIESQIRSLSGVDVEDVRKFLDKEWAWVKELLAEHPAELAEVEAARAARLAELRAEVEAKVAA	0.539
K35W (designed binder) MTLQELLREEALRRAEAEAFRYALELLAEKFPEQWEYLLDLAEEIESQIRSLSGVDVEDVRKFLDKEWAWVKELLAEHPAELAEVEAARAARLAELRAEVEAKVAA	0.593
V57L (designed binder) MTLQELLREEALRRAEAEAFRYALELLAEKFPEQKEYLLDLAEEIESQIRSLSGVDLEDVRKFLDKEWAWVKELLAEHPAELAEVEAARAARLAELRAEVEAKVAA	0.539
F63T (designed binder) MTLQELLREEALRRAEAEAFRYALELLAEKFPEQKEYLLDLAEEIESQIRSLSGVDVEDVRKTLDKEWAWVKELLAEHPAELAEVEAARAARLAELRAEVEAKVAA	0.869
E44H (designed binder) MTLQELLREEALRRAEAEAFRYALELLAEKFPEQKEYLLDLAEHIESQIRSLSGVDVEDVRKFLDKEWAWVKELLAEHPAELAEVEAARAARLAELRAEVEAKVAA	2.05
D59L (designed binder) MTLQELLREEALRRAEAEAFRYALELLAEKFPEQKEYLLDLAEEIESQIRSLSGVDVELVRKFLDKEWAWVKELLAEHPAELAEVEAARAARLAELRAEVEAKVAA	0.718
D56H (designed binder) MTLQELLREEALRRAEAEAFRYALELLAEKFPEQKEYLLDLAEEIESQIRSLSGVHVEDVRKFLDKEWAWVKELLAEHPAELAEVEAARAARLAELRAEVEAKVAA	1.86
A87T (designed binder) MTLQELLREEALRRAEAEAFRYALELLAEKFPEQKEYLLDLAEEIESQIRSLSGVDVEDVRKFLDKEWAWVKELLAEHPAELAEVETARAARLAELRAEVEAKVAA	0.956
R50E (designed binder) MTLQELLREEALRRAEAEAFRYALELLAEKFPEQKEYLLDLAEEIESQIESLSGVDVEDVRKFLDKEWAWVKELLAEHPAELAEVEAARAARLAELRAEVEAKVAA	0.446
L39A (designed binder) MTLQELLREEALRRAEAEAFRYALELLAEKFPEQKEYLADLAEEIESQIRSLSGVDVEDVRKFLDKEWAWVKELLAEHPAELAEVEAARAARLAELRAEVEAKVAA	2.05
